Biological target: the molecule itself
Test: SEC + native gel or EMSA + other: mass spectrometry; Superdex 75 26/60, 50 mM Tris-HCl pH 7.5, 50 mM NaCl, 10 mM DTT, 4 °C; two separated peaks; native gel electrophoresis and mass spectrometry not shown

B1: human soluble catechol O-methyltransferase (enzyme, UniProt P21964-2 1-221, looked up)
chain: QGDTKEQRILNHVLQHAEPGNAQSVLEAIDTYCEQKEWAMNVGDKKGKIVDAVIQEHQPSVLLELGAYCGYSAVRMARLLSPGARLITIEINPDCAAITQRMVDFAGVKDKVTLVVGASQDIIPQLKKKYDVDTLDMVFLDHWKDRYLPDTLLLEECGLLRKGTVLLADNVICPGAPDFLAHVRGSSCFECTHYQSFLEYREVVDGLEKAIYKGPGSEAGP
notes: Catechol O-methyltransferase, human, soluble isoform (S-COMT), EC 2.1.1.6; valine at the polymorphic position 108; 233 residues with the 12-residue tag, so 221 residues of S-COMT; Q belongs to the ENLYFQG site; 2H,15N,13C-labelled protein; Val108 allele; also called S-COMT; human S-COMT; source: E. coli BL21(DE3), pET21a, purified (His-Trap Ni-Sepharose, Superdex 75 size exclusion)
For B1, the “stoichiometry N” value was 2.

— PMC5343089, “^1H, ^15N, ^13C backbone resonance assignments of human soluble catechol O-methyltransferase in complex with S-adenosyl-L-methionine and 3,5-dinitrocatechol” (Biomolecular Nmr Assignments, 2016)
